Data as given in paper PMC2854097 (Molecular Biology of the Cell, 2010).

Molecular target: T1, GST-p23/Tmp21 (aa 1-219), from pEBG-p23/Tmp21 (full-length) (UniProt P49755 32-219)
T1 sequence (looked up): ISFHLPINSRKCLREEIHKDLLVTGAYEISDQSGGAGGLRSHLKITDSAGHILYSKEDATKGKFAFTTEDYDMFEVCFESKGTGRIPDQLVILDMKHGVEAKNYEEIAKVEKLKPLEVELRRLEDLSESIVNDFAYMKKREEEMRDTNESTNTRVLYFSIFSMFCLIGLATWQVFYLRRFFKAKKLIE
Test: pull-down

B1: HA-β2-chimaerin (full-length) (natural protein, UniProt P52757-1 1-468, looked up)
chain: MAASSNSSLSGSSVSSDAEEYQPPIWKSYLYQLQQEAPRPKRIICPREVENRPKYYGREFHGIISREQADELLGGVEGAYILRESQRQPGCYTLALRFGNQTLNYRLFHDGKHFVGEKRFESIHDLVTDGLITLYIETKAAEYISKMTTNPIYEHIGYATLLREKVSRRLSRSKNEPRKTNVTHEEHTAVEKISSLVRRAALTHNDNHFNYEKTHNFKVHTFRGPHWCEYCANFMWGLIAQGVRCSDCGLNVHKQCSKHVPNDCQPDLKRIKKVYCCDLTTLVKAHNTQRPMVVDICIREIEARGLKSEGLYRVSGFTEHIEDVKMAFDRDGEKADISANVYPDINIITGALKLYFRDLPIPVITYDTYSKFIDAAKISNADERLEAVHEVLMLLPPAHYETLRYLMIHLKKVTMNEKDNFMNAENLGIVFGPTLMRPPEDSTLTTLHDMRYQKLIVQILIENEDVLF
fold increase in association with PMA against vehicle (densitometry): ~7 fold
